Measured values published in publication PMC10226596, “The ethylene-responsive transcription factor PpERF9 represses PpRAP2.4 and PpMYB114 via histone deacetylation to inhibit anthocyanin biosynthesis in pear”.

How the values were obtained:
PpRAP2.4 [1] = biological target: T1, PpRAP2.4 (Pyrus (pear, 'Hongzaosu'?), UniProt A0A5N5HQM7 1-356); test: EMSA; 3 ug protein; cold competitor 10-, 50-, 200-fold; LightShift Chemiluminescent EMSA Kit (Thermo Scientific); buffer, salt, pH and temperature not stated; settings: protein: recombinant; tags: His (pET32a); label: 3' biotin (hot probe); blunt
PpRAP2.4 [2] = biological target: T1, PpRAP2.4; test: EMSA; cold competitor 50-, 100-, 200-fold; LightShift Chemiluminescent EMSA Kit (Thermo Scientific); buffer, salt, pH and temperature not stated; settings: protein: recombinant; tags: His (pET32a); label: 3' biotin (hot probe); blunt

T1 sequence (A0A5N5HQM7 entry or part of it): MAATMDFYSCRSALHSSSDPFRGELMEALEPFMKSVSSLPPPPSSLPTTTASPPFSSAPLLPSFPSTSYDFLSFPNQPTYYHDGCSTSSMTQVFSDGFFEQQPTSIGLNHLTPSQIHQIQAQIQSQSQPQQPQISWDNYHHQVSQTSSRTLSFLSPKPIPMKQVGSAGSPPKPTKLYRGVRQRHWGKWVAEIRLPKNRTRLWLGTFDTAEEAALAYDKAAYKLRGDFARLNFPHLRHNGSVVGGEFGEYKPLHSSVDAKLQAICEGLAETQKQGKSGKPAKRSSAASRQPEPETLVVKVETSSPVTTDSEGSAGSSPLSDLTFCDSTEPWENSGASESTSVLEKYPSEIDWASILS

B1: ProMYB114-probe (dsDNA)
DNA 1: GCTTGCCGTCTTTGTCGTCTCCGGCGCCGCCATCTACATCTGCTTCCAGGTTCAAC
DNA 2: GTTGAACCTGGAAGCAGATGTAGATGGCGGCGCCGGAGACGACAAAGACGGCAAGC
B1: binds (PpRAP2.4 [1]).

B2: ProACS1-probe (dsDNA)
DNA 1: GAAAAATAGAGGAGAAAAATGGCCGACAAAATTAGTTGTGGCTACTAGAGTCAAGAAG
DNA 2: CTTCTTGACTCTAGTAGCCACAACTAATTTTGTCGGCCATTTTTCTCCTCTATTTTTC
B2: binds (PpRAP2.4 [2]).
